Measurements as given in patent US20080219947A1.

Assays:
[1] = target: p29.β2m^b.L^d single chain trimer (murine) (UniProt P01887); experiment: flow cytometry on DLD-1 transfectants, 64-3-7 against 30-5-7 staining
[2] = target: MCMV.β2m^b.L^d single chain trimer (murine) (UniProt P01887); experiment: as above
[3] = target: β2m^b.L^d single chain dimer (murine) (UniProt P01887); experiment: as above
[4] = target: QL9.β2m^b.L^d single chain trimer (murine) (UniProt P01887); experiment: as above
[5] = target: epitope-tagged K^b (K^bR48Q.R50P), unattached (murine) (UniProt P01901); experiment: flow cytometry on LM1.8 transfectants
UniProt P01901, sequence (P01901 22-305, stated change not applied): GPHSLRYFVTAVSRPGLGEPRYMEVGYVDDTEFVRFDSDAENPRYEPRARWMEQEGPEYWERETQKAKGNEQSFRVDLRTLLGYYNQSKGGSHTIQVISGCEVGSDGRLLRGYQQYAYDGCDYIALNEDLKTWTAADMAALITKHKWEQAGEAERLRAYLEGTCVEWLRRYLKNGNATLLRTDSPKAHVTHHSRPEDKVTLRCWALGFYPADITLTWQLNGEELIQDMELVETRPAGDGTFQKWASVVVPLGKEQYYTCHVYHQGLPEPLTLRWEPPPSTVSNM

[6] = target: β2-microglobulin(L20).etK^b single chain dimer (murine) (UniProt P01887); experiment: flow cytometry on LM1.8 transfectants

mAb 64-3-7 (antibody) showed a percent of surface molecules detected in an open conformation [1] of 8%, a percent of surface molecules detected in an open conformation [2] of 22% and a percent of surface molecules detected in an open conformation [3] of 39%. The percent of surface molecules detected in an open conformation [4] was 22%, the open conformers as a fraction of the sum of B8-24-3 and 64-3-7 fluorescence intensity [5] was greater than 10% and the open conformers as a fraction of the sum of B8-24-3 and 64-3-7 fluorescence intensity [6] was greater than 10%.
